Measured values reported in the RNAGym collection of RNA variant scans (doi:10.1073/pnas.2313332121).

B1: TPR t1 (parent)
chain: GACCAAUCUGCCCUCAGAGCUCGAGAACAUCUUCGGAUGCAGAGGAGGCAGGCUUCGGUGGCGCGAUAGCGCCAACGUCCUCAACCUCCAAUGCAUCCCACCACAUGAUGAUGCCUGAAGAGCCUUGGUUUUUUG

Variants of: B1
Experiment: polymerase ribozyme fitness, log enrichment relative to wild type (log ratio); higher = more active; in vitro selection for triplet polymerase activity
Summary of the method: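 PCR was used to build mutant libraries for each subunit of a heterodimeric triplet polymerase ribozyme, which were then transcribed. A single in vitro selection round, in triplicate, used a frozen incubation at −7 °C and recovered extended constructs by gel excision, streptavidin beads and RT-PCR. Fitness is the logarithm of genotype enrichment relative to wild-type enrichment, averaged over replicates with inverse-variance weights. The logarithm is base 2, and after Illumina sequencing only genotypes with ≥10 input reads and ≥1 read per output were kept.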

Row | Variant | polymerase ribozyme fitness (log ratio)
1 | GACCAAUCUGCCCUCAGAGCUCGAGAAGAUCUUCGGAUGCAGAGGAGGCAGGCUUCGGUGGCGCGAUAGCGCCAACGUCCUCAACCUCCAAGGCAUCCCACCACAUGAUGAUGCCUAAAGGGCCUUGGUUUUUUG [C28G U92G G117A A121G] | -4.67
2 | GACCAAUCUGCCCUCAGAGCUCGAGAAUAUCUUCGGCUGCAGAGGAGGCAGGCUUCGGUGGCGCGAUAGCUCCAACGUCCUCAACCUCCAAUGCAUCCCACCACAUGAUGAUGCCUGAAGAGCCUUGGUUUUUUG [C28U A37C G71U] | -3.01
3 | GACCAAUCUGCCCUCAGAGCUCGAGAAGAUCUUCGGAUGCAGAGGAGGCAGGCUUCGGUGGCGCGAUAGCGCCAACGUCCUCAACCUCCAAUGCAUCCCACCACAUCAGGAUGCCUGAAGAGCCUUGGUUUUUUG [C28G G107C U109G] | -6.09
4 | GACCAAUCUGCCCUCAGAGCUCGAGAAAAUCUUCGGAUGCAGAGGAGGCAGGCUUCGGUGGCGCGAUAGCGCCAACGUCCUCAACCUCCAAUGCAUCCCACCACAUGAUGAUGCCUGAAGAGCCUUGGUUUCUUG [C28A U132C] | -4.37
5 | GACCAAUCUGCCCUCAGAGCUCGAGAAGAUCUUCGGAUGCAGAGGAGGCAGGAUUCGGUGGCGCGAUAGCGCCAACGUCCUCAACCUUCAAUGCAUCCCACCACAUGAUGAUGCCUGAAGAGCAUUGGUUUUUUG [C28G C53A C88U C124A] | -1.3
6 | GACCAAUCUGCCCUCAGAGCUCGAGAAAAUCUUCGGAUGCAGAGGAGGCAGGCUUCGGUGCCGCGAUAGCGCCAACGUCCUCAACCUCCAAUGCAUCCCACCACAUGAUGAUGCCUGAAGAGCCUUGGUUUUUUG [C28A G61C] | -5.18
7 | GACCAAUCUGCCCUCAGAGCUCGAGAAGAUCUUCGGAUGCAGAGGAGGCAGGCUUCGGUGGCGCGAUAGCGCCAACGUCCUCAACCUCCAAUGCAAGCCACCACAUGAUGAUGCCUCAAGAGCCUUGGUUUUUUG [C28G U96A C97G G117C] | -8.14
8 | GACCAAUCUGCCCUCAGAGCUCGAGAAGAUCCUCGGAUGCAGAGGAGGCAGGCUUCGGUGGCGCGAUAGCGCCAACGUCCUCAACCUCCAAUGCAUCCCACCACAUGAUGAUGCCUGAAGAGCCUUGGUUUUUUG [C28G U32C] | -2.94
9 | GACCAAUCUGCCCUCAGAGCUCGAGAAAAUCUUCGGAUGCAGAGGAGGCAGGCUUCGGUGGCGCGAUACCGCCAACGUCCUCAACCUCCAAUGCAUCCCACCACAUGAUGAUGCCUGAAGAGCAUUGGUUUUUUG [C28A G69C C124A] | -4.58
10 | GACCAAUCUGCCCUCAGAGCUCGAGAAGAUCUUCGGAUGCAGAGGAGGCAGGCUUCGGUGGCGCGAUAGCGCUAACGUCCUCAACCUCCAAUGCAUCCCACCACAUGAUGAUGCCUGAGGAGCCUUGGUUUUUUG [C28G C73U A119G] | -1.62
11 | GACCAAUCUGCCCUCAGAGCUCGAGAAGAUCUUCGGAUGCCGAGGAGGCAGGCUUCGGUGGCGUGAUAGCGCCAACGUCCUCAACCUCCAAUGCAUCCCACCACAUGAUGAUGCAUGAAGAGCCUUGGUUUUUUG [C28G A41C C64U C115A] | -2.93
12 | GACCAAUCUGCCCUCAGAGCUCGAGAAAAUCUUCGGAUGCAGAGGAGGCAGGCUUCGGUGGCGCGAUAGCGCCAACGUCCUCAACCUCCAAUGCAUCCCACCACAUGAUGAUGCCUGAACAGCCUUGGUUUUUUG [C28A G120C] | -2.79
13 | GACCAAUCUGCCCUCAGAGCUCGAGAAGAUCUUCGGAUGCAGAGUAGGCAGACUUCGGUGGCGCGAUAGCGCCAACGUCCUCAACCUCCAAUGCAUCCCACCACAUCAAGAUGCCUGAAGAGCAUUGGUUUUUUG [C28G G45U G52A G107C U109A C124A] | -5.94
14 | GACCAAUCUGCCCUCAGAGCUCGAGAAAAUCUUCGGAUGCAGAGGAGGCAGGCUUCGGUGGCGCGAUAGCCCCAACGUCCUCAACCUCGAAUGCAUCCCACCACAUGAUGAUGCCUGAAGUGCAUUGGUUUUUUG [C28A G71C C89G A121U C124A] | -5.37
15 | GACCAAUCUGCCCUCAGAGCUCGAGAAGAUCUUCGGAUGCAGAGGAGGCAGGCUUCGGUGGCGCGAUAGCACCAACGUCCUCGACCGCCAAUGCAUCCCACCACAUGAUGAUGCCUGAUGAGCCUUGGUUUUUUG [C28G G71A A83G U87G A119U] | -5.64
16 | GACCAAUCUGCCCUCAGAGCUCGAGAAGAUCUUCGGAUGCAGAGGAGGCAGGCUUCGGUGGCGCGAUAGCGCCAACGUCCUCAACCUCCAAUGCAACCCACCACAUGAUGAUGCCUGAAGAGCCUUGGUUUUUUG [C28G U96A] | -3.94
17 | GACCAAUCUGCCCUCAGAGCUCGAGAAGAUCUUCGGAUGCAGAAGGGGCAGGCUUCGGUGGCGCGAUAGCGCCAACGUCCUCAACCUCCCAUGCAUCCCACCACAUGAUGAUGCCUGAAGAGCCUUGGUUUUUUG [C28G G44A A46G A90C] | -4.5
18 | GACCAAUCUGCCCUCAGAGCUCGAGAAGAUCUUCGGAUGCAGAGGAGGCAGGCUUCGGUGGCGCGAUAGCGCCAACGUCCUCAACCUCCAAUGCAUCCCACCACAUGAUGAUGCCUAAAGAGCCUUGGUUUUUUG [C28G G117A] | -4.12
19 | GACCAAUCUGCCCUCAGAGCUCGAGAAGAUCUUCGGAUGCAGAGGAGGCAGGCUUCGGUGGCGCGAUAGCGCCAACGUCCUCAACCUCCAAUGCAUCCCACCACAUGAUGAUCCCUGAAGAGCCUUGGUUUUUUG [C28G G113C] | -6.23
20 | GACCAAUCUGCCCUCAGAGCUCGAGAAGAUCUUCGGAUGUAGAGGAGGCAGGCUUCGGUGGCGCGAUAGCGCCAACGUCCUCAACAUCCAAUGCAUCCCACCACAUGAUGAUGCCUGAAGAGCCUUGGUUUUUUG [C28G C40U C86A] | -3.65
21 | GACCAAUCUGCCCUCAGAGCUCGAGAAAAUCUUCGGAUGCAGAGGAGGCAGGCUUCGGUGGCGCGAUAGCGCCAACGUCCUCAACCUCCAAUGCAUCCCACCACAUGAUGACGCCGGAAGAGCCUUGGUAUCUUG [C28A U112C U116G U130A U132C] | -5.19

Row | Variant | polymerase ribozyme fitness (log ratio)
22 | GACCAAUCUGCCCUCAGAGCUCGAGAAAAGCUUCGGAUGCAGGGGAGGCAGGCUUCGGUGGCGCGAUAGCGCCAACGUCCUCAACCUCCAAUGCAUCCCACCACAUGAUCAUGCCUGAAGAGCCUUGGUUUUUUG [C28A U30G A43G G110C] | -6.92
23 | GACCAAUCUGCCCUCAGAGCUCGAGAAGAUCCUCGGAUGCAGAGGAGGCAGGCUUCGGUGGCGCGAUAGCGCCAACGUCCUCAACCUCCAUUGCAUCCCACCACAUGAUGAUGUCUGAGGAGCCUUGGUUUUUUG [C28G U32C A91U C114U A119G] | -6.71
24 | GACCAAUCUGCCCUCAGAGCUCGAGAAAAUCUUCGGAUGCAGAGGAGGCAGGCUUCGGUAGCGCGAUAGCGCCAACGUCCUCAACCUCCAAUGCAUCCCACCACAUGAUGAUGCCUGAAGAGCCUUGGUUUUUUG [C28A G60A] | -2.44
25 | GACCAAUCUGCCCUCAGAGCUCGAGAAAAUCUUCGGAUGCAGAGGAGGCAGGCUUCGGUAGCGCGAUAGCGCCAACGUCCUCAACCUCCAAUGCAUCCCACCACAUGAUUAUGCCUGAAGAACCUUGGUUUUUUG [C28A G60A G110U G122A] | -0.649
26 | GACCAAUCUGCCCUCAGAGCUCGAGAAGAUCUUCGGAUGCAGAGGAGUCAGGCUUCGGUGGCGCGAUAGCGCCAACGUCCUCAACCUCCAAGGCAUCCCACCACAUGAUGAUGCCUGAAGAGCAUUGGUUUUUUG [C28G G48U U92G C124A] | -5.41
27 | GACCAAUCUGCCCUCAGAGCUCGAGAAGAUCUUCGGAUGCAGAGGAGGCAGGCUUCGGUGGCGCGAUAGCGCCAACGUCCUCGACCUCCAAUGCAUCCCACCACAUGAUGAUGCCUGAAGAGCCUUGGUUUUUUG [C28G A83G] | -3.41
28 | GACCAAUCUGCCCUCAGAGCUCGAGAAGAUCUUCGGAUGCAGAGGAGGCAGGCUUCGGUGGCACGAUAGCGCUAACGUCCUCAACCUCCAAUGCAUCCCACCACAUGAUGAUGCCUGAAGAGCCUUGGUUUUUUG [C28G G63A C73U] | -3.78
29 | GACCAAUCUGCCCUCAGAGCUCGAGAAGAUUUUCGGAUGCAGAGGAGGCAGGCUUCGAUGGCACGAUAGCGCCAACGUCCUCAACCUCCAAUGCAUCCCACCACAUGAUGAUGCCUCAAGAGCCUUGGUUUUUUG [C28G C31U G58A G63A G117C] | -6.83
30 | GACCAAUCUGCCCUCAGAGCUCGAGAAGAUCUUCGGAUGCAGAGGAGGCAGGCUUCGGUGGCGCGAUAUCGCCAACGUCCUCAACCUCCAGUGCAUCCCACCACAUGAUGAUGCCGGAAGAGCCUUGGUUUUUUG [C28G G69U A91G U116G] | -5.08
31 | GACCAAUCUGCCCUCAGAGCUCGAGAAGAUCUUCGGAUGCAGAGGAGGCUGGCUUCGGUGGCGCGAUAGCGCCAACGUCCUCAACCUCCAAUGCAUCCCACCACAUGAUGAUGCCUGAAGAGCCUUGGUUUUUUG [C28G A50U] | -4.17
32 | GACCAAUCUGCCCUCAGAGCUCGAGAAAAUCUUCGGAUGCAGAGGAGGCAGGCUUCGGUGGCGCGAUAGCGCCAACGUCCUCAACCUCCAAUGCAUCCCACCACAUGAUAAUGCCUGAAGAGCCUUGGUUUUUUG [C28A G110A] | -0.364
33 | GACCAAUCUGCCCUCAGAGCUCGAGAAGAUCUUCGGAUGCAGAGGAGGCAGGCUUCGGUGGCGCGAUAGCGACAACGUCCUCAACCUCCAAUGCAUCCCACCACAUGAUGAUGCCUGAAGAGCCUUGGUUUUUUG [C28G C72A] | -3.15
34 | GACCAAUCUGCCCUCAGAGCUCGAGAAGAUCUUCGGAUGCAGAGGAGGCAGGCUUCGGUGGCGCGAUAGAGCCAACGUCCUCAACCUCCAAUGCAUCCCACCACAUGAUGAUGCCUGAAGAGCCUUGGUUUUUUG [C28G C70A] | -4.55
35 | GACCAAUCUGCCCUCAGAGCUCGAGAAAAUCUUCGGAUGCAGAGGAGGCAGGCUUCGGUGGCGCGAUAGCGCCAACGUCCUCAACCUCCAAUGCAUCCCACCACAUGAUCAUGCCUGAUGAGCCUUGGUUUUUUG [C28A G110C A119U] | -1.42
36 | GACCAAUCUGCCCUCAGAGCUCGAGAAGAUCUUCGGAUGCAGACGAGGCAGUCUUCGGUGGCGCGAUAGCGCAAACGUCCUCAACCUCCAAUGCAUCCCACCACAUGAUAAUGCCUGAAGAGCCUUGGUUUUUUG [C28G G44C G52U C73A G110A] | -2.09
37 | GACCAAUCUGCCCUCAGAGCUCGAGAAGAUCUUCGGAUGCAGAGGAGGCAGGCUUCGGUGGCGCGAUAGCGCCAACGUCCUCAACCUCCAAUGCAUCCCACCACAAGAUGAUGCCUCAAGAGCCUUGGUUUUUUG [C28G U106A G117C] | -5.9
38 | GACCAAUCUGCCCUCAGAGCUCGAGAAGAUCUUCGGAUGCAGAGGAGGCAGGCGUCGGUGGUGCGAUAGCGCCAACGUCCUCAACCUCCAAUGCAUCCCACCACAUGAUGAUGCCUGAAGAGCCUUGGUUUUUUG [C28G U54G C62U] | -3.83
39 | GACCAAUCUGCCCUCAGAGCUCGAGAAGAUCUUCGGAUGAAGAGGAGGCAGGCUUCGGUGGCGCGAUAGCGCCAACGUCCUCAACCUCCAAUGUAUCCCACCACAUGAUCAUGCCUGAAGAGCCUUGGUUUUUUG [C28G C40A C94U G110C] | -0.668
40 | GACCAAUCUGCCCUCAGAGCUCGAGAAAAUCUUCGGAUGCAGAGUAGGCAGGCUUCGGUGGCGCGAUAGCGACAACGUCCUCAACCUCCAAUGCAUCCCACCACAUGAUGAUGCAUGAAGAGCCUUGGUUUUUUG [C28A G45U C72A C115A] | -6.12
41 | GACCAAUCUGCCCUCAGAGCUCGAGAAGAUCUUCGGAUGCAGAGGAGGCAGGCUUCGGUGGCGCGAUAGCGCCAACGUCCUCAACCUCCAAUGCAUCCCACCACAUGAUGUUGCCUGAAGAGCCUUGGUUUUUUG [C28G A111U] | -2.62
42 | GACCAAUCUGCCCUCAGAGCUCGAGAAGAUCUUCGGAUGCAGAGGAGGCAGGCUUCGGUGGCGCGAUAGCGCCAACGUCCUCAACAUCCAAUGCAUCCCACCACAUGAUGAUGCCUGAACAGCCUUGGUUUUUUG [C28G C86A G120C] | -2.11
